For assay [1], the target named is T1, mouse MerTK-human Fc fusion protein (mouse; human, UniProt Q60805 19-497).
T1 construct: range 19-497; Made in ExpiCHO-S cells; also called protein of mouse MerTK fused with human Fc; not shown: human IgG1 Fc as encoded by the pFUSE-hIgG1-Fc1 vector (InvivoGen)
T1 sequence (looked up): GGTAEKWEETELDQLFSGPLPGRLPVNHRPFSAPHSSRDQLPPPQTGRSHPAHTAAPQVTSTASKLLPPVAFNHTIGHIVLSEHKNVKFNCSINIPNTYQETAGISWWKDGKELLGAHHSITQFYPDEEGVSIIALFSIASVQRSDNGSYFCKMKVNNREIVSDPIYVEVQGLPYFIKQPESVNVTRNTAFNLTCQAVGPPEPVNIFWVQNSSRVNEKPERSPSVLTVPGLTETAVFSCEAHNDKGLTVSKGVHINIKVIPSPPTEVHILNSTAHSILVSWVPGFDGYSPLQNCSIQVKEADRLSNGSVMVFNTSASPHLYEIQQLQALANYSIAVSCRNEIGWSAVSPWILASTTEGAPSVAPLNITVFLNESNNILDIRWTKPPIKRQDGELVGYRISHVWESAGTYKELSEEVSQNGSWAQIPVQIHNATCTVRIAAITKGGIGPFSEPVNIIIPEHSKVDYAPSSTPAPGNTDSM
Description: ELISA, MerTK protein immobilized at 1 µg/mL. (In general: In an ELISA, binding on a coated surface is turned into a signal by an enzyme label.)

Assay [2] deals with T2, human MerTK-human Fc fusion protein (human, UniProt Q12866 21-505).
T2 construct: range 21-505; Made in ExpiCHO-S cells; also called human MerTK-Fc protein; MerTK-Fc fusion protein; not shown: human IgG1 Fc as encoded by the pFUSE-hIgG1-Fc1 vector (InvivoGen)
T2 sequence (looked up): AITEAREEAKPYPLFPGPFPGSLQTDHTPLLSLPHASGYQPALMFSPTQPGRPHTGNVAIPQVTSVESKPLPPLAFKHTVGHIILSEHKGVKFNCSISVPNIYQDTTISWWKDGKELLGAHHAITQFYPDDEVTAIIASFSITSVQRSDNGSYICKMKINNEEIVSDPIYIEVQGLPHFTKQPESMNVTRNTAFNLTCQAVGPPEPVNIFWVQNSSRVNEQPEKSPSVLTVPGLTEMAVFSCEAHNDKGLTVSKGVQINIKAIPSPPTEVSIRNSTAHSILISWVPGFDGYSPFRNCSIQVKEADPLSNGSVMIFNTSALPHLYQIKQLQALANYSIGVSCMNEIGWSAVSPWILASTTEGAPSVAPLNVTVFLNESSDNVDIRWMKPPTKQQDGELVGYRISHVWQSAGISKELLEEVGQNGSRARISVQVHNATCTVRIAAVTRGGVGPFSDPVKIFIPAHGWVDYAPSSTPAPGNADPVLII
Description: ELISA, MerTK protein immobilized at 1 µg/mL.

Assay [3] has as its target T3, human MerTK-His protein (human, UniProt Q12866 21-505).
T3 construct: range 21-505; Made in ExpiCHO-S cells; also called protein of human MerTK fused with His tag
T3 sequence: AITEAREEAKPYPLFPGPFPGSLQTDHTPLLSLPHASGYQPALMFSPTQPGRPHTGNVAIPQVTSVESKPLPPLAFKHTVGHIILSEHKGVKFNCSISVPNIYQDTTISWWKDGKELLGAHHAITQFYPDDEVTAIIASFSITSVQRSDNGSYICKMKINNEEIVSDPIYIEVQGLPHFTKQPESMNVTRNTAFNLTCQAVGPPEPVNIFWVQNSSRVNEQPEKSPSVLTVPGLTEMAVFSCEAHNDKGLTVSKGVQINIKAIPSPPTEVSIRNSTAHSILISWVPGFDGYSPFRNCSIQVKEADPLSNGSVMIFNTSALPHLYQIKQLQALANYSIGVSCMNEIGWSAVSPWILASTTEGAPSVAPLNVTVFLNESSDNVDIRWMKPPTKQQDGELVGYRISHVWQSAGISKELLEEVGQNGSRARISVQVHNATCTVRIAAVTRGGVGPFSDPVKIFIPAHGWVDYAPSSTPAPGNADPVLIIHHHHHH
In words: ELISA, human MerTK-His immobilized at 1 µg/mL.

In assay [4] the target is T2, human MerTK-human Fc fusion protein. Description: ELISA, human MerTK-Fc immobilized at 1 µg/mL.
Assay [5] concerns the target misfolding-treated recombinant human TTR V30M protein (human, UniProt P02766 21-147). In words: ELISA, misTTR immobilized at 2 µg/mL.
The target in assay [6] is T3, human MerTK-His protein. Description: ELISA, human MerTK-His immobilized, same method.

B1: tA3-20 (antibody, human IgG1, lambda, L234A L235A)
heavy: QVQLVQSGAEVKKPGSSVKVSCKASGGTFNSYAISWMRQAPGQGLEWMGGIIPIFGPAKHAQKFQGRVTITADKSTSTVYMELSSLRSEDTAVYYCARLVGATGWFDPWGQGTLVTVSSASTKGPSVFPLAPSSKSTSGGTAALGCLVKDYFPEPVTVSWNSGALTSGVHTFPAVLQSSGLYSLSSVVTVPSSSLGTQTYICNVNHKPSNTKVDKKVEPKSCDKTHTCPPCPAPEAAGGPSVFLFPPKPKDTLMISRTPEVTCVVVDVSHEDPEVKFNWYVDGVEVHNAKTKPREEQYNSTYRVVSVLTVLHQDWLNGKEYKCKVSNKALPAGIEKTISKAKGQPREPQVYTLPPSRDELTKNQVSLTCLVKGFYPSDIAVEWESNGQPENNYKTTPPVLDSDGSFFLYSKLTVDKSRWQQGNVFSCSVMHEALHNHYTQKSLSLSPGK
light: FMLTQPHSVSESPGKTVNISCTRSSGSIATNYVQWYQQRPGSSPTTVIYEDNQRPSGVPDRFSGSIDSSSNSASLTISGLKTEDEAVYHCQSYDSSNVVFGGGTKLTVLGQPKAAPSVTLFPPSSEELQANKATLVCLISDFYPGAVTVAWKADSSPVKAGVETTTPSKQSNNKYAASSYLSLTPEQWKSHRSYSCQVTHEGSTVEKTVAPTECS
notes: human lambda constant region; also called fully human anti-MerTK antibody; anti-MerTK agonist antibody tA3-20
For the molecule B1, the binding result (in assay [1]; in assay [2]; with human MerTK-His protein [3]) was “binds” throughout.

B2: tA3-20.2 (antibody, human IgG1, lambda, L234A L235A)
heavy: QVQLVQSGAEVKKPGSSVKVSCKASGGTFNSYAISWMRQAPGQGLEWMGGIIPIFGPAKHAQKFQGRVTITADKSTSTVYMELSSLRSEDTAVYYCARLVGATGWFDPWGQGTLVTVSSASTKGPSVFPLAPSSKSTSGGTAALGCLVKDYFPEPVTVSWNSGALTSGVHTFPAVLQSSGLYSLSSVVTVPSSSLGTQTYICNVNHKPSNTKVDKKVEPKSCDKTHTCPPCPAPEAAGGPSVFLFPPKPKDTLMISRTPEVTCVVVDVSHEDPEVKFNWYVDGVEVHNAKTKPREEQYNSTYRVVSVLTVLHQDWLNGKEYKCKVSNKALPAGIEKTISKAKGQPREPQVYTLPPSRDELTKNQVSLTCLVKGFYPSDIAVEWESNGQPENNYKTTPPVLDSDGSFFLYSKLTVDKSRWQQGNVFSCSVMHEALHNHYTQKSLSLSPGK
light: FMLTQPHSVSESPGKTVSISCTRSSGSIATNYVQWYQQRPGSSPTTVIYEDNQRPSGVPDRFSGSIDSSSNSASLTISGLKTEDEAVYHCQSYDSSNVVFGGGTKLTVLGQPKAAPSVTLFPPSSEELQANKATLVCLISDFYPGAVTVAWKADSSPVKAGVETTTPSKQSNNKYAASSYLSLTPEQWKSHRSYSCQVTHEGSTVEKTVAPTECS
In the case of B2, the binding result with human MerTK-His protein [3] is recorded as “binds”.

B3: tA3-20.1 (antibody, human IgG1, lambda, L234A L235A)
heavy: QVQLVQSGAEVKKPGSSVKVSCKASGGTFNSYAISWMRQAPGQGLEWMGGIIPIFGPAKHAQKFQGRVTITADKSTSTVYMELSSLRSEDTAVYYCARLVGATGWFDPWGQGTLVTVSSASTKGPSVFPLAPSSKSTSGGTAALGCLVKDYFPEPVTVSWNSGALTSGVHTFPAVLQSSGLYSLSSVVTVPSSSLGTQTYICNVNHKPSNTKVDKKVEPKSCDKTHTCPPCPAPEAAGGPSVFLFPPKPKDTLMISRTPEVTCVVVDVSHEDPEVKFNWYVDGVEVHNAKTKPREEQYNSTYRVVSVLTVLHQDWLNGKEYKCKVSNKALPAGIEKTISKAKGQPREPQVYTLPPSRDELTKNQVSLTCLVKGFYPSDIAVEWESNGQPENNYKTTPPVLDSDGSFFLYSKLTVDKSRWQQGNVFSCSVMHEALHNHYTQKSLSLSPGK
light: FMLTQPHSVSESPGKTVTISCTRSSGSIATNYVQWYQQRPGSSPTTVIYEDNQRPSGVPDRFSGSIDSSSNSASLTISGLKTEDEAVYHCQSYDSSNVVFGGGTKLTVLGQPKAAPSVTLFPPSSEELQANKATLVCLISDFYPGAVTVAWKADSSPVKAGVETTTPSKQSNNKYAASSYLSLTPEQWKSHRSYSCQVTHEGSTVEKTVAPTECS
In the case of B3, in the assay with human MerTK-His protein [3], the binding result was “binds”.

B4: tA-009 (bispecific antibody, mouse IgG2a)
heavy: QVQLVQSGAEVKKPGSSVKVSCKASGGTFNSYAISWMRQAPGQGLEWMGGIIPIFGPAKHAQKFQGRVTITADKSTSTVYMELSSLRSEDTAVYYCARLVGATGWFDPWGQGTLVTVSSAKTTAPSVYPLAPVCGDTTGSSVTLGCLVKGYFPEPVTLTWNSGSLSSGVHTFPAVLQSDLYTLSSSVTVTSSTWPSQSITCNVAHPASSTKVDKKIEPRGPTIKPCPPCKCPAPNAAGGPSVFIFPPKIKDVLMISLSPIVTCVVVDVSEDDPDVQISWFVNNVEVHTAQTQTHREDYNSTLRVVSALPIQHQDWMSGKEFKCKVNNKDLAAPIERTISKPKGSVRAPQVYVLPPPEKEMTKKQVSLTCLVKDFMPEDIYVEWTNNGKTELNYKNTEPVLKSDGSYFMYSKLTVEKKNWVERNSYSCSVVHEGLHNHHTTKSFSRTPGK
light: NFMLTQPHSVSESPGKTVNISCTRSSGSIATNYVQWYQQRPGSSPTTVIYEDNQRPSGVPDRFSGSIDSSSNSASLTISGLKTEDEAVYHCQSYDSSNVVFGGGTKLTVLGQPKSSPSVTLFPPSSEELETNKATLVCTITDFYPGVVTVDWKVDGTPVTQGMETTQPSKQSNNKYMASSYLTLTARAWERHSSYSCQVTHEGHTVEKSLSRADCS
chain: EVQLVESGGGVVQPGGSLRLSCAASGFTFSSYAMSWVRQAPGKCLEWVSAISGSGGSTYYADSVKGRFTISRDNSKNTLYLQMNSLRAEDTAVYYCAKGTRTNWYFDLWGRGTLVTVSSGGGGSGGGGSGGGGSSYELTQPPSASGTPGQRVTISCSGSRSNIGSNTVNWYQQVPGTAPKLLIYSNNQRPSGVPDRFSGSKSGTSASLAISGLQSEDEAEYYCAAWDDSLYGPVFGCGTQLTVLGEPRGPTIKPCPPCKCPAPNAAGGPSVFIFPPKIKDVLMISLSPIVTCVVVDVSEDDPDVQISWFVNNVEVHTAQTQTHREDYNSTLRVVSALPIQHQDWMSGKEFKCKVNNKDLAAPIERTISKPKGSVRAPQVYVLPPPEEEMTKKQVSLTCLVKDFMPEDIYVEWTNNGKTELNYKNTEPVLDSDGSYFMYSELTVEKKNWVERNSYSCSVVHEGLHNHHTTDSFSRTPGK
notes: also called mouse-type anti-MerTK-anti-TTR bispecific antibody
Turning to B4, the binding result in assay [4] and in assay [5] was “binds” in each case.

B5: tA3-20.3 (antibody, human IgG1, lambda, L234A L235A)
heavy: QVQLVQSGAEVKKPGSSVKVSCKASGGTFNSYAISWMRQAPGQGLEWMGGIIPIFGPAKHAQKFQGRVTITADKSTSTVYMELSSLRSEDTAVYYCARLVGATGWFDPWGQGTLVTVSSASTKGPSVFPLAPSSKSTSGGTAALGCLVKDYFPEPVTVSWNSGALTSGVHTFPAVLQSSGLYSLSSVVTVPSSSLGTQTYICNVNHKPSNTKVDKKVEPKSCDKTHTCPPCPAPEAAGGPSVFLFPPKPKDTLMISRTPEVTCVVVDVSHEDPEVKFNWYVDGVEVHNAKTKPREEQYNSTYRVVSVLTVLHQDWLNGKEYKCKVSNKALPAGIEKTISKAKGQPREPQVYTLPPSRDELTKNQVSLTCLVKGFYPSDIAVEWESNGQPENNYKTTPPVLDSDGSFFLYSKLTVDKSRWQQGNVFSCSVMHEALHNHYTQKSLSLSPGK
light: NFMLTQPHSVSESPGKTVNISCTRSSGSIATNYVQWYQQRPGSSPTTVIYEDNQRPSGVPDRFSGSIDSSSNSASLTISGLKTEDEAVYHCQSYDSSNVVFGGGTKLTVLGQPKAAPSVTLFPPSSEELQANKATLVCLISDFYPGAVTVAWKADSSPVKAGVETTTPSKQSNNKYAASSYLSLTPEQWKSHRSYSCQVTHEGSTVEKTVAPTECS
On to B5, for which the binding result with human MerTK-His protein [6] is “binds”.

B6: tA3-20.4 (antibody, human IgG1, lambda, L234A L235A)
heavy: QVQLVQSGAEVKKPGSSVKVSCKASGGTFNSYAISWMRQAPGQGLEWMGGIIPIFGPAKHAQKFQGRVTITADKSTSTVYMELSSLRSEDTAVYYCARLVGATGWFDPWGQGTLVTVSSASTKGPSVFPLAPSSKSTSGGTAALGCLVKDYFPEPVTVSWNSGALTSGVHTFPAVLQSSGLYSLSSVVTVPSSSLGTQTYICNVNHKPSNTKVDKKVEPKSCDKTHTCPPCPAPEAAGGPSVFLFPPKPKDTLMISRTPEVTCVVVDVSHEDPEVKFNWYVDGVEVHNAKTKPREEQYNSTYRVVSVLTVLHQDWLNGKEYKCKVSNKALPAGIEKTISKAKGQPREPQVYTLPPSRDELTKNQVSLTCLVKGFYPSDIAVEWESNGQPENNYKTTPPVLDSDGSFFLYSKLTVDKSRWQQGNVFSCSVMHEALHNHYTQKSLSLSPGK
light: NFMLTQPHSVSESPGKTVTISCTRSSGSIATNYVQWYQQRPGSSPTTVIYEDNQRPSGVPDRFSGSIDSSSNSASLTISGLKTEDEAVYHCQSYDSSNVVFGGGTKLTVLGQPKAAPSVTLFPPSSEELQANKATLVCLISDFYPGAVTVAWKADSSPVKAGVETTTPSKQSNNKYAASSYLSLTPEQWKSHRSYSCQVTHEGSTVEKTVAPTECS
For B6, the binding result with human MerTK-His protein [6] was “binds”.

B7: tA3-20.5 (antibody, human IgG1, lambda, L234A L235A)
heavy: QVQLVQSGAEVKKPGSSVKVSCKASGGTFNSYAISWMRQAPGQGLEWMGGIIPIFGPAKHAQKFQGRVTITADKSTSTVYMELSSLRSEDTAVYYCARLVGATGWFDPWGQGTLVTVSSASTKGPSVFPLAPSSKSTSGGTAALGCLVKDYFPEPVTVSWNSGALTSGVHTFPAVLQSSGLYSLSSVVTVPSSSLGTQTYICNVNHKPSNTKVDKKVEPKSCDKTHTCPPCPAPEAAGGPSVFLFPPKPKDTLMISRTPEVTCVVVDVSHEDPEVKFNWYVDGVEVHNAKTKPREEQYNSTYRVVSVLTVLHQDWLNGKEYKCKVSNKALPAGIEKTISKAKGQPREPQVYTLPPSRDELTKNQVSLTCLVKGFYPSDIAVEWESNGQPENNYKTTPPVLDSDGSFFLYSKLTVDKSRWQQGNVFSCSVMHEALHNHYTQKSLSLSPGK
light: NFMLTQPHSVSESPGKTVSISCTRSSGSIATNYVQWYQQRPGSSPTTVIYEDNQRPSGVPDRFSGSIDSSSNSASLTISGLKTEDEAVYHCQSYDSSNVVFGGGTKLTVLGQPKAAPSVTLFPPSSEELQANKATLVCLISDFYPGAVTVAWKADSSPVKAGVETTTPSKQSNNKYAASSYLSLTPEQWKSHRSYSCQVTHEGSTVEKTVAPTECS
For the molecule B7, the binding result in the assay with human MerTK-His protein [6] was “binds”.

For the origin of these results see EP4786497A1 (Astellas Pharma Inc., dated 2026).
